Assay results taken from US20030145347.

Key:
[1] = tested on: soybean thioredoxin prep without S-tag (recombinant, expressed in E. coli from pNOV4112, S-Tag removed by thrombin cleavage)
[2] = tested on: soybean thioredoxin with S-tag (recombinant, expressed in E. coli from pNOV4112)
[3] = tested on: rice thioredoxin with S-tag (recombinant, expressed in E. coli from pNOV4113)

Substance	OD 650 nm (after 31 minutes), insulin reduction assay, thioredoxin 4 ug as printed in the row (insulin)	OD 650 nm (after 31 minutes), insulin reduction assay, thioredoxin 5 ug as printed in the row (insulin)	OD 650 nm (after 31 minutes), insulin reduction assay, thioredoxin 6 ug as printed in the row (insulin)	OD 650 nm (after 31 minutes), insulin reduction assay, thioredoxin 7 ug as printed in the row (insulin)	Rate of Precipitation (change of A650/min), insulin reduction assay, thioredoxin 4 ug as printed in the row (insulin)	Rate of Precipitation (change of A650/min), insulin reduction assay, thioredoxin 5 ug as printed in the row (insulin)	Rate of Precipitation (change of A650/min), insulin reduction assay, thioredoxin 6 ug as printed in the row (insulin)	Rate of Precipitation (change of A650/min), insulin reduction assay, thioredoxin 7 ug as printed in the row (insulin)	reduction of thioredoxin, DTNB assay [1]	reduction of thioredoxin, DTNB assay [2]	reduction of thioredoxin in vitro [3]	reduction of thioredoxin, DTNB assay [3]
soybean thioredoxin prep without S-tag (recombinant, expressed in E. coli from pNOV4112, S-Tag removed by thrombin cleavage)	0.001 OD 650 nm	0.0077 OD 650 nm	0.0084 OD 650 nm	0.0117 OD 650 nm	3.2e-05 A650/min	0.00025 A650/min	0.00027 A650/min	0.00038 A650/min				
Arabidopsis NADPH thioredoxin reductase without S-tag (recombinant, expressed in E. coli from pNOV4115)									can reduce soybean thioredoxin with and without the S-tag	can reduce soybean thioredoxin with and without the S-tag	Arabidopsis thioredoxin reductase is found to be active in reducing rice thioredoxin in vitro	can also reduce rice thioredoxin
